Experimental data published in PMC12099300.

Columns and labels:
atezolizumab = assay: ELISA; antibodies coated on MaxiSorp plates (5 µg/mL, 50 µL, overnight 4°C), blocked with 1% BSA; PD-L1 or VISTA 50-0.0003 µg/mL in PBS, 1 h RT; detected by anti-His-tag antibody and Strep-HRP; EC50 by nonlinear regression
onvatilimab = assay: as above
Sequence of onvatilimab (heavy, as listed by the source, chain 1 of 2): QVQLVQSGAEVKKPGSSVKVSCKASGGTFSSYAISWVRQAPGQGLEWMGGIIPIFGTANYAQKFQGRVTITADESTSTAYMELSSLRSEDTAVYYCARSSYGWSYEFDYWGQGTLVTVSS
Sequence of onvatilimab (light, as listed by the source, chain 2 of 2): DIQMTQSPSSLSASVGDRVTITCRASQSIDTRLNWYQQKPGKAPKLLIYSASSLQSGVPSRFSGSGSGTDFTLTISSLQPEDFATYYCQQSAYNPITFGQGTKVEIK

EC50 (onvatilimab) [pM] | Substance | EC50 (atezolizumab) [nM]
– | PD-L1 (programmed cell death ligand 1) (from UniProt Q9NZQ7 19-290) (natural protein) | 0.07
0.1 | VISTA (V-type immunoglobulin suppressor of T-cell activation) (from UniProt Q9H7M9 33-311) (natural protein) | –
